In patent publication US20220041738A1 (SAITAMA MEDICAL UNIVERSITY, published 2022):

How the values were obtained:
Experiment in all cases: immunofluorescence on transfected, formalin-fixed C2C12 cells, IgG at 10 µg/mL, Alexa 594 anti-rat IgG
[1] = target: T1, human ALK2-G325A on cells (human, UniProt Q04771 21-509)
T1 sequence: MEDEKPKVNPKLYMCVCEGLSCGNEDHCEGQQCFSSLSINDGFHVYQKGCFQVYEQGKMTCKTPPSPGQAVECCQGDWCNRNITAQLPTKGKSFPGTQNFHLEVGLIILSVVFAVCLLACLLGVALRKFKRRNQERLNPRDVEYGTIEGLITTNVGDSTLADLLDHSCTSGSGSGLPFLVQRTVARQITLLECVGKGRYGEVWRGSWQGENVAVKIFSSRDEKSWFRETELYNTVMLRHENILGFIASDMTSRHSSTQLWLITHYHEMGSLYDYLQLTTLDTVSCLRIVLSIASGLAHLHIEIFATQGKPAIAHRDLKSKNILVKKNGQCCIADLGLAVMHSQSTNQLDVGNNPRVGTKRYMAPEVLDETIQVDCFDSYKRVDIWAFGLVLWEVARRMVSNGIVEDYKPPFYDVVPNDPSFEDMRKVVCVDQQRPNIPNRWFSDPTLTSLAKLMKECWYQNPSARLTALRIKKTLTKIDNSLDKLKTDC
Procedure: (§1) Mouse C2C12 cells were seeded into a 96-well plate (Greiner Bio-One) at 0.5×10³ cells/well, and cultured in 15% FBS-containing DMEM medium overnight under the conditions of 5% CO₂ at 37° C. On the following day, the C2C12 cells were transfected with each of a wild-type human ALK2 cDNA integrated into pcDEF3; pcDEF3/human ALK2-L196P, pcDEF3/human ALK2-P197_F198delinsL, pcDEF3/human ALK2-R202I, pcDEF3/human ALK2-R206H, pcDEF3/human ALK2-Q207E, pcDEF3/human ALK2-R258S, pcDEF3/human ALK2-G325A, pcDEF3/human ALK2-G328E, pcDEF3/human ALK2-G328R, pcDEF3/human ALK2-G328W, pcDEF3/human ALK2-G356D, and pcDEF3/human ALK2-R375P, which are variants identified in FOP; and pcDEF3 as a control, using Lipofectamine 2000 (Invitrogen), and further cultured overnight.
(§2) The C2C12 cells were fixed with 10% neutral formalin (Nacalai Tesque, Japan) for 20 minutes at room temperature, and then blocked with 10% goat normal serum for 30 minutes. After the blocking agent was removed, purified IgG diluted to 10 μg/mL with the blocking agent was added, and the cells were left for 1 hour at room temperature. After the cells were washed with PBS three times, Goat Alexa 594-conjugated anti-rat IgG (Invitrogen) diluted to 1:1000 with the blocking agent was added, and the cells were left for 1 hour at room temperature. After the cells were washed with PBS three times, the cells were fixed with 10% neutral formalin for 15 minutes at room temperature, and nuclear-stained with DAPI (LifeTechnologies). Fluorescent signals were analyzed with a fluorescence microscope BZ-9000 (Keyence).

[2] = target: T2, human ALK2-G328E on cells (human, UniProt Q04771 21-509)
T2 sequence: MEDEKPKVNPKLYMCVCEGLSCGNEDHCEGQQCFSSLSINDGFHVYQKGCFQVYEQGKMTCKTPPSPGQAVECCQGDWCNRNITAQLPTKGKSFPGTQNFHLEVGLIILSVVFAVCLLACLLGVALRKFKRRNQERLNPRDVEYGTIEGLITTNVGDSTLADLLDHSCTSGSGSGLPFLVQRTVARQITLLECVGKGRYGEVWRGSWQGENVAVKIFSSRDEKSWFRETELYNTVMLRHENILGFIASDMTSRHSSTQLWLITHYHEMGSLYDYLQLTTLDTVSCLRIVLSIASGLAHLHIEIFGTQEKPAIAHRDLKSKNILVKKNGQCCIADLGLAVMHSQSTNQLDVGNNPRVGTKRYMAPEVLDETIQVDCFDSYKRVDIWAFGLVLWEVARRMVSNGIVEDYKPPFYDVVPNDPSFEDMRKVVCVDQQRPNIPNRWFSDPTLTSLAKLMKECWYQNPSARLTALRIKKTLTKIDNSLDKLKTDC
Procedure: as §1, §2

[3] = target: T3, human ALK2-R258S on cells (human, UniProt Q04771 21-509)
T3 sequence: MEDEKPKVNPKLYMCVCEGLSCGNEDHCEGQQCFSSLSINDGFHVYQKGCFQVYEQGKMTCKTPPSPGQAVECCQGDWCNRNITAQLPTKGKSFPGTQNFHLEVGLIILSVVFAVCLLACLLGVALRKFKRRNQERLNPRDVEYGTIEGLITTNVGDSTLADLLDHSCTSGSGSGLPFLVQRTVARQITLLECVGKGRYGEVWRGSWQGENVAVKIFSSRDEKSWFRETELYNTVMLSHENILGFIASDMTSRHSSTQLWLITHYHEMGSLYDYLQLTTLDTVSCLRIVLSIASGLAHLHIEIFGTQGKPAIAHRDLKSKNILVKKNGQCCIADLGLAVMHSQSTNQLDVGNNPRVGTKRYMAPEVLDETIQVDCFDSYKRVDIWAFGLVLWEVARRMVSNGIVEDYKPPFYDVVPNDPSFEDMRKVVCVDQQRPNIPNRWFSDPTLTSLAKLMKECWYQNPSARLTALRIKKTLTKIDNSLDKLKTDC
Procedure: as §1, §2

[4] = target: T4, human ALK2-G356D on cells (human, UniProt Q04771 21-509)
T4 sequence: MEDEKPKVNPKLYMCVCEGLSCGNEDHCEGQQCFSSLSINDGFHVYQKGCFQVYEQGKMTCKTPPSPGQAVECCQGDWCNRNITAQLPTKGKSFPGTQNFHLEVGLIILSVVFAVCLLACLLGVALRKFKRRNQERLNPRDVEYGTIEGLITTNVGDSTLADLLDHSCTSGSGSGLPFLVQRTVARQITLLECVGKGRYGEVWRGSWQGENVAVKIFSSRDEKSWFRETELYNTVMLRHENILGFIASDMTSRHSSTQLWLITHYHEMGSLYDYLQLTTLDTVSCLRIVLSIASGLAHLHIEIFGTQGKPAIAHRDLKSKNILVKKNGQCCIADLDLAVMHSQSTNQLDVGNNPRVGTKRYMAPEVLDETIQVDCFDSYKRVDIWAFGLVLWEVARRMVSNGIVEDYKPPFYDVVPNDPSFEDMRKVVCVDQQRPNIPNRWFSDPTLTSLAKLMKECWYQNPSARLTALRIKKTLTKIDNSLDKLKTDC
Procedure: as §1, §2

Measured: binding result

B1: rat anti-ALK2 monoclonal antibody A2-25C (antibody, V domains shown)
VH: EVQLVESGGGLVQPGGSLKLSCAASGFTFSYYAMSWVCQAPTKGLEWVASISRGGDNTYYRDTVKGRFTTSRDNAKNTLYLQMDSLRSEDTATYYCARLNYNNYFDYWGQGVMVTVSS
VL: DIQMTQSPASLSASLEEIVTITCQASQDIGNWLSWYQQKPGKSPQLLIYGATSLADGVPSRFSGSRSGTQYSLKISRLRVEDIGIYYCLQAYSAPFTFGSGTKLEIKR
notes: Rat monoclonal IgG from a hybridoma; also called 25C11
binds: all assays above

B2: rat anti-ALK2 monoclonal antibody A2-27D (antibody, V domains shown)
VH: EVQLVESGGGLVQPGRSLKLSCLASGSTFSNYGMKWIRQAPGKGLEWVASISRSSTYIYYADTVKGRFTISRDNARNTLYLQMTSLRSEDTALYYCAAAISTPFYWYFDFWGPGTVVTVSS
VL: EIVLTQSPTTMAASPGEKVTLNCLASSSVSYMTWYQQKSGASPKLWIYGTSNLASGVPNRFSGSGSGTSYSLAISSMEAEDVATYYCLHLTSYPPYTFGAGTKLELKR
notes: Rat monoclonal IgG from a hybridoma; also called 27D11
binds: all assays above
